Tested on: hES cells
Assay: Embryoid body differentiation of hES cells, visual scoring of beating EBs
Assay type: cell-based, human
Details: growth factor 10 ng/ml added to END2-CM, day 12, compared to END2-CM alone
Protocol: This procedure describes the formation of embryoid bodies (EB) from collagenase-derived hES cell cultures. After formation the EBs were then exposed to END2 conditioned medium (CM).
Enzymatically passaged hES cells grown on feeder cells were washed once with PBS^+ and treated with Collagenase IV (1 mg/ml) for 3-4 min at 37° C. The Collagenase IV solution was replaced by DMEM and the cells were mechanically dissociated with a pipette tip. Cells were then harvested using a cell scraper and the cell suspension was transferred to a 50 ml tube (Falcon). Cell clumps were collected by gravity and the supernatant was aspirated. Cells were resuspended in fresh DMEM medium aiming to uniformly disperse the cell clumps in the suspension. An equal volume of the cell suspension was then transferred to ultra low attachment plates (Costar). […]
In suspension culture, EBs are formed in ultra low attachment plates in SF medium over night. […] Usually, cells were cultured over a period of 12-13 days before the visual analysis of the proportion of beating EBs under a microscope was performed followed by cell collection for additional readouts. Multiple beating areas on single EBs were not counted separately. Values are expressed as a percentage of contracting EBs compared to […] in a single well of a 6-well tray. […] An average value per well was calculated and presented.

B1: Bmp6: recombinant human Bmp6 (R&D) (protein, UniProt P22004 375-513, looked up)
Bone morphogenetic protein 6: SASSRRRQQSRNRSTQSQDVARVSSASDYNSSELKTACRKHELYVSFQDLGWQDWIIAPKGYAANYCDGECSFPLNAHMNATNHAIVQTLVHLMNPEYVPKPCCAPTKLNAISVLYFDDNSNVILKKYRNMVVRACGCH
- CM induction activity (number of beating areas): enhance CM induction activity
